Laboratory results as given in the supplement of paper PMC10567573.

B1: OAS1 (parent)
chain: LQLGEGVEFDVLPAFDALGQLTGG
B2: SLC19A2 (parent)
chain: FHHIPSTCQRVNGIKVQNGGIVTD

Variants of: B1
Test: protein stability index of a GFP-peptide fusion (GPS, HEK-293T) (PSI 1-6); higher = more stable
Conditions: c terminus: a fixed tail appended
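Also: lentivirally expressed fusions sorted by FACS into six bins by GFP to DsRed ratio, PSI derived from sequencing read proportions per bin multiplied by bin number.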

Row | Variant | protein stability index
1 | GQLGEGVEFDVLPAFDALGQLTGG [L1G] | 4.46
2 | HQLGEGVEFDVLPAFDALGQLTGG [L1H] | 4.33
3 | FQLGEGVEFDVLPAFDALGQLTGG [L1F] | 2.06
4 | DQLGEGVEFDVLPAFDALGQLTGG [L1D] | 4.96
5 | CQLGEGVEFDVLPAFDALGQLTGG [L1C] | 2.95
6 | EQLGEGVEFDVLPAFDALGQLTGG [L1E] | 4.58
7 | AQLGEGVEFDVLPAFDALGQLTGG [L1A] | 3.26

Variants of: B2
Test: as above
Conditions: c terminus: a fixed tail appended

Row | Variant | protein stability index
8 | FHHIPSTCQRVNGIKTQNGGIVTD [V16T] | 1.89
9 | FHHIPSTCQRVNGIKHQNGGIVTD [V16H] | 2.15
10 | FHHIPSTCQRVNGIKGQNGGIVTD [V16G] | 2.13
11 | FHHIPSTCQRVNGIKQQNGGIVTD [V16Q] | 1.56
12 | FHHIPSTCQRVNGIKDQNGGIVTD [V16D] | 2.31
13 | FHHIPSTCQRVNGIKLQNGGIVTD [V16L] | 1.79
14 | FHHIPSTCQRVNGIKWQNGGIVTD [V16W] | 2.14
15 | FHHIPSTCQRVNGIKKQNGGIVTD [V16K] | 2.02
16 | FHHIPSTCQRVNGIKEQNGGIVTD [V16E] | 1.49
17 | FHHIPSTCQRVNGIKCQNGGIVTD [V16C] | 2.2
18 | FHHIPSTCQRVNGIKMQNGGIVTD [V16M] | 2.44
19 | FHHIPSTCQRVNGIKNQNGGIVTD [V16N] | 1.96
20 | FHHIPSTCQRVNGIKYQNGGIVTD [V16Y] | 1.95
21 | FHHIPSTCQRVNGIKAQNGGIVTD [V16A] | 2.13
22 | FHHIPSTCQRVNGIKPQNGGIVTD [V16P] | 2.14
23 | FHHIPSTCQRVNGIKSQNGGIVTD [V16S] | 2.26
24 | FHHIPSTCQRVNGIKRQNGGIVTD [V16R] | 1.93
25 | FHHIPSTCQRVNGIKIQNGGIVTD [V16I] | 1.51
26 | FHHIPSTCQRVNGIKFQNGGIVTD [V16F] | 1.6
27 | FHHIPSTCQRVNGIKVQNGGITTD [V22T] | 2.52
28 | FHHIPSTCQRVNGIKVQNGGISTD [V22S] | 2.23
29 | FHHIPSTCQRVNGIKVQNGGIMTD [V22M] | 1.52

Row | Variant | protein stability index
30 | FHHIPSTCQRVNGIKVQNGGIFTD [V22F] | 3.33
31 | FHHIPSTCQRVNGIKVQNGGIKTD [V22K] | 1.77
32 | FHHIPSTCQRVNGIKVQNGGIQTD [V22Q] | 2.18
33 | FHHIPSTCQRVNGIKVQNGGIYTD [V22Y] | 1.47
34 | FHHIPSTCQRVNGIKVQNGGIETD [V22E] | 1.84
35 | FHHIPSTCQRVNGIKVQNGGIATD [V22A] | 2.44
36 | FHHIPSTCQRVNGIKVQNGGIWTD [V22W] | 1.91
37 | FHHIPSTCQRVNGIKVQNGGIITD [V22I] | 1.73
38 | FHHIPSTCQRVNGIKVQNGGIHTD [V22H] | 2.01
39 | FHHIPSTCQRVNGIKVQNGGIGTD [V22G] | 1.56
40 | FHHIPSTCQRVNGIKVQNGGIRTD [V22R] | 2.19
41 | FHHIPSTCQRVNGIKVQNGGINTD [V22N] | 2.23
42 | FHHIPSTCQRVNGIKVQNGGILTD [V22L] | 2.2
43 | FHHIPSTCQRVNGIKVQNGGICTD [V22C] | 1.61
44 | FHHIPSTCQRVNGIKVQNGGIDTD [V22D] | 2.42
45 | FHHIPSTCQRVNGIKVQNGGIPTD [V22P] | 2.62
46 | FHHIPSTCQRVNGIKVQNGMIVTD [G20M] | 2.18
47 | FHHIPSTCQRVNGIKVQNGVIVTD [G20V] | 1.5
48 | FHHIPSTCQRVNGIKVQNGFIVTD [G20F] | 1.65
49 | FHHIPSTCQRVNGIKVQNGHIVTD [G20H] | 2.19
50 | FHHIPSTCQRVNGIKVQNGDIVTD [G20D] | 2.2
51 | FHHIPSTCQRVNGIKVQNGLIVTD [G20L] | 1.64

Row | Variant | protein stability index
52 | FHHIPSTCQRVNGIKVQNGKIVTD [G20K] | 1.87
53 | FHHIPSTCQRVNGIKVQNGNIVTD [G20N] | 2.29
54 | FHHIPSTCQRVNGIKVQNGEIVTD [G20E] | 1.95
55 | FHHIPSTCQRVNGIKVQNGRIVTD [G20R] | 1.73
56 | FHHIPSTCQRVNGIKVQNGCIVTD [G20C] | 1.8
57 | FHHIPSTCQRVNGIKVQNGAIVTD [G20A] | 1.59
58 | FHHIPSTCQRVNGIKVQNGQIVTD [G20Q] | 1.8
59 | FHHIPSTCQRVNGIKVQNGIIVTD [G20I] | 1.9
60 | FHHIPSTCQRVNGIKVQNGPIVTD [G20P] | 2.2
61 | FHHIPSTCQRVNGIKVQNGSIVTD [G20S] | 2.34
62 | FHHIPSTCQRVNGIKVQNGTIVTD [G20T] | 1.76
63 | FHHIPSTCQRVNGIKVQCGGIVTD [N18C] | 1.52
64 | FHHIPSTCQRVNGIKVQPGGIVTD [N18P] | 2.08
65 | FHHIPSTCQRVNGIKVQFGGIVTD [N18F] | 2.04
66 | FHHIPSTCQRVNGIKVQAGGIVTD [N18A] | 1.77
67 | FHHIPSTCQRVNGIKVQMGGIVTD [N18M] | 1.98
68 | FHHIPSTCQRVNGIKVQIGGIVTD [N18I] | 2.94
69 | FHHIPSTCQRVNGIKVQSGGIVTD [N18S] | 1.92
70 | FHHIPSTCQRVNGIKVQYGGIVTD [N18Y] | 1.63
71 | FHHIPSTCQRVNGIKVQLGGIVTD [N18L] | 1.28
72 | FHHIPSTCQRVNGIKVQEGGIVTD [N18E] | 2.01
73 | FHHIPSTCQRVNGIKVQGGGIVTD [N18G] | 3.96

Row | Variant | protein stability index
74 | FHHIPSTCQRVNGIKVQRGGIVTD [N18R] | 2.14
75 | FHHIPSTCQRVNGIKVQTGGIVTD [N18T] | 1.65
76 | FHHIPSTCQRVNGIKVQDGGIVTD [N18D] | 1.81
77 | FHHIPSTCQRVNGIKVQKGGIVTD [N18K] | 1.68
78 | FHHIPSTCQRVNGIKVQQGGIVTD [N18Q] | 1.48
79 | FHHIPSTCQRVNGIKVFNGGIVTD [Q17F] | 1.41
80 | FHHIPSTCQRVNGIKVRNGGIVTD [Q17R] | 2.81
81 | FHHIPSTCQRVNGIKVENGGIVTD [Q17E] | 2.28
82 | FHHIPSTCQRVNGIKVHNGGIVTD [Q17H] | 2.08
83 | FHHIPSTCQRVNGIKVCNGGIVTD [Q17C] | 2.37
84 | FHHIPSTCQRVNGIKVTNGGIVTD [Q17T] | 1.67
85 | FHHIPSTCQRVNGIKVKNGGIVTD [Q17K] | 2.66
86 | FHHIPSTCQRVNGIKVPNGGIVTD [Q17P] | 2.35
87 | FHHIPSTCQRVNGIKVNNGGIVTD [Q17N] | 2.17
88 | FHHIPSTCQRVNGIKVDNGGIVTD [Q17D] | 2.05
89 | FHHIPSTCQRVNGIKVANGGIVTD [Q17A] | 1.89
90 | FHHIPSTCQRVNGIKVWNGGIVTD [Q17W] | 1.62
91 | FHHIPSTCQRVNGIKVVNGGIVTD [Q17V] | 2.1
92 | FHHIPSTCQRVNGIKVLNGGIVTD [Q17L] | 1.34
93 | FHHIPSTCQRVNGIKVYNGGIVTD [Q17Y] | 2.31
94 | FHHIPSTCQRVNGIKVGNGGIVTD [Q17G] | 1.87
